The source of these data is patent US20100158968A1 (PURDUE RESEARCH FOUNDATION, published 2010).

Non-standard residues stand in square brackets, D forms with d. No end group written: not given here.

Common to all, as to assay: cell-based or functional assay
Assay [1] deals with MLCK (h) (myosin light chain kinase) (human).
The target in assay [2] is PKBβ (h) (protein kinase B) (human, UniProt P31751 120-481, limits assumed).
The target in assay [3] is T1, mitogen-activated protein kinase-activated protein kinase 2 (human MK2) (human, UniProt P49137 46-400, limits assumed).
Assay [4] concerns the target T2, PRAK (h) (p38 regulated/activated protein kinase) (human, UniProt Q8IW41 1-473, limits assumed).
T2 sequence (looked up): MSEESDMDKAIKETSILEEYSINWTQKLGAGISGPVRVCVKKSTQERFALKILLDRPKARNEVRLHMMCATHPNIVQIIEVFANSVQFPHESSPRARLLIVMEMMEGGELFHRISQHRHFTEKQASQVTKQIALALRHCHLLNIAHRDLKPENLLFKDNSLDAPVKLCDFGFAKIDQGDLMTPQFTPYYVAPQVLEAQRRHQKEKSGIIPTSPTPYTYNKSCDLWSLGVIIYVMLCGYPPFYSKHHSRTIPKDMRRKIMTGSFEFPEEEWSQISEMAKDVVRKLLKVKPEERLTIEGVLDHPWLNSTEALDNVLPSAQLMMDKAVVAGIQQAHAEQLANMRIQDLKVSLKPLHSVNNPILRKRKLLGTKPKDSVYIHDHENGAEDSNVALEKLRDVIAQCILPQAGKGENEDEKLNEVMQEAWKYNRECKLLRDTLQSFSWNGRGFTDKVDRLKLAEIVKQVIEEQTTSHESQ

For assay [5], the target named is T3, IRAK4 (h) (IL-1 receptor (IL-1R)-associated kinase) (human, UniProt Q9NWZ3 1-460, limits assumed).
T3 sequence (looked up): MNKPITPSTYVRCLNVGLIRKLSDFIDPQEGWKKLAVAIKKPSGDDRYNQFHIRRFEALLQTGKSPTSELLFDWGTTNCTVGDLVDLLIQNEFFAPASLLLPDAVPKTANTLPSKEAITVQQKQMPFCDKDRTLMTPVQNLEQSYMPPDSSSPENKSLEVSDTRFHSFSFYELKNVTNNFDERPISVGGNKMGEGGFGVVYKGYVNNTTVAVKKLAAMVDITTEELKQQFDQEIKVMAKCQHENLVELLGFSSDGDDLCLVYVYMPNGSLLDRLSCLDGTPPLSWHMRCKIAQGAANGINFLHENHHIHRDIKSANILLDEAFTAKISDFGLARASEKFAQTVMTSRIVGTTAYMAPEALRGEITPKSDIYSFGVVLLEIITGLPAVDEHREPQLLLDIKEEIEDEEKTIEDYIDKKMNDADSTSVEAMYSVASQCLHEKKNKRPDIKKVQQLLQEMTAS

For assay [6], the target named is CaMKI (h) (calcium/calmodulin-dependent protein kinase) (human, UniProt Q14012 1-370, limits assumed).
The target in assay [7] is MK3 (mitogen-activated protein kinase-activated protein kinase 3) (human, UniProt Q16644 1-382, limits assumed).
For assay [8], the target named is ROCK-I (h) (Rho-associated serine/threonine kinase) (human, UniProt Q13464 17-535, limits assumed).
A further assay addresses SAPK2a (h) (p38α) (human, UniProt Q16539 1-360).
The target in assay [9] is T1, mitogen-activated protein …. This is another data set of the same source.

ROCK-I (h) (Rho-associated serine/threonine kinase), sequence (Q13464 17-535 limits assumed): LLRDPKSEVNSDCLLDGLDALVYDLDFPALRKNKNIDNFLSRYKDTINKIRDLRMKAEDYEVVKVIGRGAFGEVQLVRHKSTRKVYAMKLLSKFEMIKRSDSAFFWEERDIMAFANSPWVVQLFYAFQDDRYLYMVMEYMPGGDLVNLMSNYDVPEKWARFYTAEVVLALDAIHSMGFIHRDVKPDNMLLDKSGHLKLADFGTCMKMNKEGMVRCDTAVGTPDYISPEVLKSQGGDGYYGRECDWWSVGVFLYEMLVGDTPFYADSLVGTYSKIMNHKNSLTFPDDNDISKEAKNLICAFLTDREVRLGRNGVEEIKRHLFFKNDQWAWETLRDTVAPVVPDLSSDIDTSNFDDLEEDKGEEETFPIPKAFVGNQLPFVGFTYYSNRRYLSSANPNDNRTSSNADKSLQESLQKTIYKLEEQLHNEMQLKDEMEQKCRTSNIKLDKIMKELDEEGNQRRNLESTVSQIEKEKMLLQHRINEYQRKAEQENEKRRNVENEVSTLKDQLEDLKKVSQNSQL
CaMKI (h) (calcium/calmodulin-dependent protein kinase), sequence (Q14012 whole entry): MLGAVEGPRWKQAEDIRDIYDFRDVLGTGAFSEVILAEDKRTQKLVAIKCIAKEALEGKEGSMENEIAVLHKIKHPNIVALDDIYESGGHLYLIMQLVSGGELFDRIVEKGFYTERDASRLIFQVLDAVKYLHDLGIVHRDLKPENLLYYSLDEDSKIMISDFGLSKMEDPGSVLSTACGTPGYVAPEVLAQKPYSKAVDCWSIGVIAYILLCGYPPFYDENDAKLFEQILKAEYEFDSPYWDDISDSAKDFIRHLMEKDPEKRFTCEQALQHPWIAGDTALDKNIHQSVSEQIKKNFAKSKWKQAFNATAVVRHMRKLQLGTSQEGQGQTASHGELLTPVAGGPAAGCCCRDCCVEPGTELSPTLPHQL
MK3 (mitogen-activated protein kinase-activated protein kinase 3), sequence (Q16644 whole entry): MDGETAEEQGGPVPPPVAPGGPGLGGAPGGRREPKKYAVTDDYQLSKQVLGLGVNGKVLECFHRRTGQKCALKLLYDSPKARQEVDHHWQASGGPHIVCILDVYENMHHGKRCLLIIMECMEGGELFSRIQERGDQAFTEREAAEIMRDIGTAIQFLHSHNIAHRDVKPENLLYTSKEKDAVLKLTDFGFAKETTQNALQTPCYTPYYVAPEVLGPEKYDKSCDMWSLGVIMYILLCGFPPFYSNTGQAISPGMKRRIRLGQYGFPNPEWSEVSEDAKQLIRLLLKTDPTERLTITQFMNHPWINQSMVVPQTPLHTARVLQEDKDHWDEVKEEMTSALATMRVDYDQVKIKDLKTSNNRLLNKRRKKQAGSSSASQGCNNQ
T1 sequence (P49137 46-400 limits assumed): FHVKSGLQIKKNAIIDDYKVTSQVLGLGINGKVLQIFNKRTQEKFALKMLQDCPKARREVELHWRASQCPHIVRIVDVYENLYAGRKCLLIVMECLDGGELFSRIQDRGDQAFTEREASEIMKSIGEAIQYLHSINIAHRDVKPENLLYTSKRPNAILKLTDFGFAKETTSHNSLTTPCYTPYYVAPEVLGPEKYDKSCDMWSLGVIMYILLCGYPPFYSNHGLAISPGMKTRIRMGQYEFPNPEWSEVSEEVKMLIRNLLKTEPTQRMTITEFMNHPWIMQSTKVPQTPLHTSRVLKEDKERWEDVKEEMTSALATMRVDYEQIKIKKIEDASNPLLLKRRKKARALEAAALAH
SAPK2a (h) (p38α), sequence (Q16539 whole entry): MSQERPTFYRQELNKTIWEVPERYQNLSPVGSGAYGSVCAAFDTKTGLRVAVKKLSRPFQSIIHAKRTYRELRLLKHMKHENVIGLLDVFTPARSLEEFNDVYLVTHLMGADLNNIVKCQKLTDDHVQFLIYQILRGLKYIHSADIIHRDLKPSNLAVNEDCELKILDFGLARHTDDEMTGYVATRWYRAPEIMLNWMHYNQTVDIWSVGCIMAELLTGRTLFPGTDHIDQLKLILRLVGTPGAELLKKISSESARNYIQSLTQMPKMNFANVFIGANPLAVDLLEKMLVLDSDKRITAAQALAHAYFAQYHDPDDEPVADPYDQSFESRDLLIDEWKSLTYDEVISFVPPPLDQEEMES
PKBβ (h) (protein kinase B), sequence (P31751 120-481 limits assumed): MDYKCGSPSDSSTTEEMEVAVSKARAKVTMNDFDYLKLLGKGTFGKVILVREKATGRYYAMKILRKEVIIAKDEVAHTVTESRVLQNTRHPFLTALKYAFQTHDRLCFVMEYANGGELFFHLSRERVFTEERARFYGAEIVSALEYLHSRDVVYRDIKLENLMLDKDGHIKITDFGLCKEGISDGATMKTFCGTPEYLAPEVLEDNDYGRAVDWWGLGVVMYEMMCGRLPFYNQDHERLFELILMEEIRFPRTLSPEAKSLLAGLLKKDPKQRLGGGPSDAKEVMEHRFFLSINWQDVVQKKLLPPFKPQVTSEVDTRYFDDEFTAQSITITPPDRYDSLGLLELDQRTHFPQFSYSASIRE

B1: WLRRIKAWLRRIKALNRQLGVAA (peptide)
peptide: WLRRIKAWLRRIKALNRQLGVAA
With B1, the “Kinase Activity, peptide at 30 µM, radiometric assay” value in assay [1] turned out to be 4%; in [2], 18%; in assay [3], 2%; in assay [4], 67%; in assay [5] it was 12%; in assay [6], 9%. For the same molecule, the “Kinase Activity, peptide at 30 µM, radiometric assay” value in assay [7] turned out to be 16%; in assay [8], 0%; in the assay with SAPK2a (h) (p38α), 61%.

B2: KALNdRQLGVAA (peptide)
peptide: KALN[dR]QLGVAA-NH2
modifications: N-terminus assumed
SMILES: CC(C)C[C@H](NC(=O)[C@H](C)NC(=O)[C@@H](N)CCCCN)C(=O)N[C@@H](CC(N)=O)C(=O)N[C@H](CCCNC(=N)N)C(=O)N[C@@H](CCC(N)=O)C(=O)N[C@@H](CC(C)C)C(=O)NCC(=O)N[C@H](C(=O)N[C@@H](C)C(=O)N[C@@H](C)C(N)=O)C(C)C
With B2, the “% change in MK2 reaction velocity vs unsubstituted …, peptide at 100 µM” value (“% change in MK2 reaction velocity” for short) in assay [9] was 206%.

B3: KALNAQLGVAA (peptide)
peptide: KALNAQLGVAA
B3: the “% change in MK2 reaction velocity” value in assay [9] was 258%.

B4: KALARQLGVAA (peptide)
peptide: KALARQLGVAA
B4: in assay [9], the “% change in MK2 reaction velocity” value was -61%.

B5: KALNRQAGVAA (peptide)
peptide: KALNRQAGVAA
Take B5: in [9], the “% change in MK2 reaction velocity” value was found to be 18%.

B6: KAFAKLAARLYRLARQLGVAA (peptide)
peptide: KAFAKLAARLYRLARQLGVAA
As for B6, the “Kinase Activity, peptide at 100 µM, radiometric assay” value (from here on “Kinase Activity, peptide at 100 µM”) in assay [1] is 2%; in [2], 28%; in [3] it was 8%; in assay [4], 148%; in [5], 16%; in assay [6], 0%. The results for the “Kinase Activity, peptide at 100 µM” value (in assay [7]; in [8]; with SAPK2a (h) (p38α)) were 17%, 29% and 59%, respectively.

B7: KAANRQLGVAA (peptide)
peptide: KAANRQLGVAA
Turning to B7, in assay [9], the “% change in MK2 reaction velocity” value worked out at 52%.

B8: YGRKKRRQRRR (peptide)
peptide: YGRKKRRQRRR
Consider B8, for which the “% change in MK2 reaction velocity” value in [9] was found to be 44%.

B9: KALNRdQLGVAA (peptide)
peptide: KALNR[dQ]LGVAA-NH2
modifications: N-terminus assumed
SMILES: CC(C)C[C@H](NC(=O)[C@H](C)NC(=O)[C@@H](N)CCCCN)C(=O)N[C@@H](CC(N)=O)C(=O)N[C@@H](CCCNC(=N)N)C(=O)N[C@H](CCC(N)=O)C(=O)N[C@@H](CC(C)C)C(=O)NCC(=O)N[C@H](C(=O)N[C@@H](C)C(=O)N[C@@H](C)C(N)=O)C(C)C
With B9, the “% change in MK2 reaction velocity” value in assay [9] was 176%.

B10: WLRRIKA (non-functional) (peptide)
peptide: WLRRIKA
As to B10, in assay [9], the “% change in MK2 reaction velocity” value is 4310%.

B11: KALdNRQLGVAA (peptide)
peptide: KAL[dN]RQLGVAA-NH2
modifications: N-terminus assumed
SMILES: CC(C)C[C@H](NC(=O)[C@H](C)NC(=O)[C@@H](N)CCCCN)C(=O)N[C@H](CC(N)=O)C(=O)N[C@@H](CCCNC(=N)N)C(=O)N[C@@H](CCC(N)=O)C(=O)N[C@@H](CC(C)C)C(=O)NCC(=O)N[C@H](C(=O)N[C@@H](C)C(=O)N[C@@H](C)C(N)=O)C(C)C
Turning to B11, the “% change in MK2 reaction velocity” value in assay [9] was -5%.

B12: Alanine-substitution peptide printed as KALNRQLGVAA (Table 1, fourth alanine row) (peptide)
peptide: KALNRQLGVAA
Consider B12, for which the “% change in MK2 reaction velocity” value in assay [9] is 258%.

B13: KKKALNRQLGVAA (peptide)
peptide: KKKALNRQLGVAA
As to B13, the “% change in MK2 reaction velocity” value in assay [9] is -9%.

B14: KALNRQLGAAA (peptide)
peptide: KALNRQLGAAA
For the molecule B14, the “% change in MK2 reaction velocity” value in assay [9] stood at 273%.

B15: FAKLAARLYRLARQLGVAA (peptide)
peptide: FAKLAARLYRLARQLGVAA
Regarding B15, the “Kinase Activity, peptide at 100 µM” value in [1] worked out at 1%; in assay [2] it was 16%; in assay [3], 5%; in assay [4], 131%; in assay [5], 13%; in assay [6] it was 0%. The “Kinase Activity, peptide at 100 µM” value in assay [7] amounted to 10%; in assay [8], 25%; with SAPK2a (h) (p38α), 30%.

B16: KALNRQLAVAA (peptide)
peptide: KALNRQLAVAA
For the molecule B16, the “% change in MK2 reaction velocity” value in [9] is -28%.

B17: KALNRQdLGVAA (peptide)
peptide: KALNRQ[dL]GVAA-NH2
modifications: N-terminus assumed
SMILES: CC(C)C[C@H](NC(=O)[C@H](C)NC(=O)[C@@H](N)CCCCN)C(=O)N[C@@H](CC(N)=O)C(=O)N[C@@H](CCCNC(=N)N)C(=O)N[C@@H](CCC(N)=O)C(=O)N[C@H](CC(C)C)C(=O)NCC(=O)N[C@H](C(=O)N[C@@H](C)C(=O)N[C@@H](C)C(N)=O)C(C)C
B17: the “% change in MK2 reaction velocity” value in [9] is 257%.

B18: KALNRQLGVA (peptide)
peptide: KALNRQLGVA
As for B18, in [9], the “% change in MK2 reaction velocity” value was 0%.

B19: WLRRIKAWLRRIKA (peptide)
peptide: WLRRIKAWLRRIKA
B19: in assay [9], the “% change in MK2 reaction velocity” value is -83%.

B20: KALNRQLGdVAA (peptide)
peptide: KALNRQLG[dV]AA-NH2
modifications: N-terminus assumed
SMILES: CC(C)C[C@H](NC(=O)[C@H](C)NC(=O)[C@@H](N)CCCCN)C(=O)N[C@@H](CC(N)=O)C(=O)N[C@@H](CCCNC(=N)N)C(=O)N[C@@H](CCC(N)=O)C(=O)N[C@@H](CC(C)C)C(=O)NCC(=O)N[C@@H](C(=O)N[C@@H](C)C(=O)N[C@@H](C)C(N)=O)C(C)C
On to B20, for which the “% change in MK2 reaction velocity” value in assay [9] is 160%.

B21: WLRRIKAWLRRIKALNRQLGV (peptide)
peptide: WLRRIKAWLRRIKALNRQLGV
As for B21, the “% change in MK2 reaction velocity” value in assay [9] is -132%.

B22: KAdLNRQLGVAA (peptide)
peptide: KA[dL]NRQLGVAA-NH2
modifications: N-terminus assumed
SMILES: CC(C)C[C@H](NC(=O)[C@H](CCC(N)=O)NC(=O)[C@H](CCCNC(=N)N)NC(=O)[C@H](CC(N)=O)NC(=O)[C@@H](CC(C)C)NC(=O)[C@H](C)NC(=O)[C@@H](N)CCCCN)C(=O)NCC(=O)N[C@H](C(=O)N[C@@H](C)C(=O)N[C@@H](C)C(N)=O)C(C)C
With B22, the “% change in MK2 reaction velocity” value in assay [9] was 46%.
